Reference: US20090264360A1

Biological target: lamprey GnRH receptor (sea lamprey (Petromyzon marinus))
Experiment: cell-based or functional assay

fold difference of EC50 against lamprey GnRH-I (IP and cAMP) (fold lower than lamprey GnRH-I): 40 to 50
Substance: lamprey GnRH-III (from UniProt P30948 1-10) (peptide)
